# In IntAct's records for PubMed 9341158:
# Columns and labels:
# [1] = target: ap1m1_human AP1M1 (UniProt Q9BXS5)
# [2] = target: ap2m1_rat Ap2m1 (UniProt P84092)
# Chain of ap2m1_rat Ap2m1 (P84092 whole entry): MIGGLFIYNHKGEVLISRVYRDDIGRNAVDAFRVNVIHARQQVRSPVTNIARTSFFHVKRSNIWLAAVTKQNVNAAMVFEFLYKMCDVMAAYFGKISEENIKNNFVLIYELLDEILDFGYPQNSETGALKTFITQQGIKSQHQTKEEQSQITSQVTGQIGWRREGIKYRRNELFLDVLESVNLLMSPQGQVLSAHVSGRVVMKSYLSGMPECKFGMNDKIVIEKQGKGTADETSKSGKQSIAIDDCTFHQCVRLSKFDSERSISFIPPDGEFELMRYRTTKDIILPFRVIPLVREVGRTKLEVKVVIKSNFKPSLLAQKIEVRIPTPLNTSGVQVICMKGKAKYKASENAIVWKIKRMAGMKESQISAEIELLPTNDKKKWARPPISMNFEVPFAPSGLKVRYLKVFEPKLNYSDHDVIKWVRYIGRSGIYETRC
# Chain of Trans-Golgi network integral membrane protein TGN38 (Rattus norvegicus (Rat)), P19814 Y350A (P19814 whole entry Y350A): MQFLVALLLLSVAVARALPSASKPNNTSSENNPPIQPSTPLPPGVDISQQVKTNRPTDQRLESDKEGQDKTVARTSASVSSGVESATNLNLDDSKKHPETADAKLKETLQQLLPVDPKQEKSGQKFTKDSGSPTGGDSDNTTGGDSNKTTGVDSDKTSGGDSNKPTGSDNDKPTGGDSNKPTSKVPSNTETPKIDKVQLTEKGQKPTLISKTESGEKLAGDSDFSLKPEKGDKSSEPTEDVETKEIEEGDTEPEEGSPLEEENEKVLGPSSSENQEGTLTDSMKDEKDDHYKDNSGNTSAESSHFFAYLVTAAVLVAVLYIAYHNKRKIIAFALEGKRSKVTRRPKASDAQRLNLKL
# Chain of ap1m1_human AP1M1 (Q9BXS5 whole entry): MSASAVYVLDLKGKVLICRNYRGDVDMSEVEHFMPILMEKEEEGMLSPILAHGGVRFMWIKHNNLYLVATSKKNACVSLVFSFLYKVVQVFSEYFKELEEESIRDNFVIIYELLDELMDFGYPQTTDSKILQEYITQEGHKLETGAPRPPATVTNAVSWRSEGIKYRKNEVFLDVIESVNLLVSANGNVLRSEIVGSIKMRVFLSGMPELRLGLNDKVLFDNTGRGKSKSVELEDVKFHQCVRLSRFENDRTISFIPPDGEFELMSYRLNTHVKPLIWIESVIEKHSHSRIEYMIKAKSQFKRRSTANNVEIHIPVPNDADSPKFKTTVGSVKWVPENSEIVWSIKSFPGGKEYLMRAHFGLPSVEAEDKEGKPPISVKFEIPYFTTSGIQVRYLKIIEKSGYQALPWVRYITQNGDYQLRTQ
substance,measurement,setting,value
"Trans-Golgi network integral membrane protein TGN38 (Rattus norvegicus (Rat)), P19814 Y350A",effect of a mutation on the interaction,[1],decreasing interaction
same,effect of a mutation on the interaction,[2],decreasing interaction
